# The supplement of paper PMC5998384
# Legend:
# [1] = tested on: HeLa Kyoto; assay: solubility change mitosis vs G1/S (difference of NP-40 vs SDS log2 ratios) (log2 ratio difference); higher = more soluble in mitosis
# [2] = tested on: HeLa Kyoto; assay: melting temperature (median over replicates), in situ; higher = more thermally stable
# [3] = tested on: HeLa Kyoto; assay: solubility in G1/S (NP-40 vs SDS abundance) (log2 ratio); higher = more soluble; conditions: cell cycle stage: G1/S
# 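Throughout, for melting temperature (median over replicates), in situ: HeLa Kyoto cells synchronized by double thymidine or nocodazole block, proteins quantified by TMT10plex mass spectrometry, three independent biological replicates.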
# 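Throughout, for solubility change mitosis vs G1/S (difference of NP-40 vs SDS log2 ratios): synchronized HeLa Kyoto cells (double thymidine block for G1/S, nocodazole release for mitosis), protein amounts in NP-40 versus SDS lysates quantified by mass spectrometry, three biological replicates.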
# 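Throughout, for solubility in G1/S (NP-40 vs SDS abundance): HeLa Kyoto cells arrested at G1/S by double thymidine block, proteins quantified by TMT10plex mass spectrometry in mild NP-40 versus SDS extracts, three biological replicates.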
Substance,solubility change mitosis (log2) [1],melting temperature ([2]; cell cycle stage: G1/S) [°C],melting temperature ([2]; cell cycle stage: mitosis) [°C],solubility in G1/S (log2) [3]
MDLHMMNCELLATCSALGYLEGDTYHKEPDCLESVKDLIRYLRHEDETRDVRQQLGAAQILQSDLLPILTQHHQDKPLFDAVIRLMVNLTQPALLCFGNLPKEPSFRHHFLQVLTYLQAYKEAFASEKAFGVLSETLYELLQLGWEERQEEDNLLIERILLLVRNILHVPADLDQEKKIDDDASAHDQLLWAIHLSGLDDLLLFLASSSAEEQWSLHVLEIVSLMFRDQNPEQLAGVGQGRLAQERSADFAELEVLRQREMAEKKTRALQRGNRHSRFGGSYIVQGLKSIGERDLIFHKGLHNLRNYSSDLGKQPKKVPKRRQAARELSIQRRSALNVRLFLRDFCSEFLENCYNRLMGSVKDHLLREKAQQHDETYYMWALAFFMAFNRAASFRPGLVSETLSVRTFHFIEQNLTNYYEMMLTDRKEAASWARRMHLALKAYQELLATVNEMDISPDEAVRESSRIIKNNIFYVMEYRELFLALFRKFDERCQPRSFLRDLVETTHLFLKMLERFCRSRGNLVVQNKQKKRRKKKKKVLDQAIVSGNVPSSPEEVEAVWPALAEQLQCCAQNSELSMDSVVPFDAASEVPVEEQRAEAMVRIQDCLLAGQAPQALTLLRSAREVWPEGDVFGSQDISPEEEIQLLKQILSAPLPRQQGPEERGAEEEEEEEEEEEEELQVVQVSEKEFNFLDYLKRFACSTVVRAYVLLLRSYQQNSAHTNHCIVKMLHRLAHDLKMEALLFQLSVFCLFNRLLSDPAAGAYKELVTFAKYILGKFFALAAVNQKAFVELLFWKNTAVVREMTEGYGSLDDRSSSRRAPTWSPEEEAHLRELYLANKDVEGQDVVEAILAHLNTVPRTRKQIIHHLVQMGLADSVKDFQRKGTHIVLWTGDQELELQRLFEEFRDSDDVLGHIMKNITAKRSRARIVDKLLALGLVAERRELYKKRQKKLASSILPNGAESLKDFCQEDLEEEENLPEEDSEEEEEGGSEAEQVQGSLVLSNENLGQSLHQEGFSIPLLWLQNCLIRAADDREEDGCSQAVPLVPLTEENEEAMENEQFQQLLRKLGVRPPASGQETFWRIPAKLSPTQLRRAAASLSQPEEEQKLQPELQPKVPGEQGSDEEHCKEHRAQALRALLLAHKKKAGLASPEEEDAVGKEPLKAAPKKRQLLDSDEEQEEDEGRNRAPELGAPGIQKKKRYQIEDDEDD [TIMELESS],-0.0762,49.5,49.2,-0.204
RCOR3,0.101,49.1,50,0.375
MALFPAFAGLSEAPDGGSSRKELDWLSNPSFCVGSITSLSQQTEAAPAHVSEGLPLTRSHLKSESSDESDTNKKLKQTSRKKKKEKKKKRKHQHHKKTKRKHGPSSSSRSETDTDSEKDKPSRGVGGSKKESEEPNQGNNAAADTGHRFVWLEDIQAVTGETFRTDKKPDPANWEYKSLYRGDIARYKRKGDSCLGINPKKQCISWEGTSTEKKHSRKQVERYFTKKSVGLMNIDGVAISSKTEPPSSEPISFIPVKDLEDAAPVTTWLNPLGIYDQSTTHWLQGQGPPEQESKQPDAQPDSESAALKAKVEEFNRRVRENPRDTQLWMAFVAFQDEVMKSPGLYAIEEGEQEKRKRSLKLILEKKLAILERAIESNQSSVDLKLAKLKLCTEFWEPSTLVKEWQKLIFLHPNNTALWQKYLLFCQSQFSTFSISKIHSLYGKCLSTLSAVKDGSILSHPALPGTEEAMFALFLQQCHFLRQAGHSEKAISLFQAMVDFTFFKPDSVKDLPTKGQVEFFEPFWDSGEPRAGEKGARGWKAWMHQQERGGWVVINPDEDDDEPEEDDQEIKDKTLPRWQIWLAAERSRDQRHWRPWRPDKTKKQTEEDCEDPERQVLFDDIGQSLIRLSSHDLQFQLVEAFLQFLGVPSGFTPPASCLYLAMDENSIFDNGLYDEKPLTFFNPLFSGASCVGRMDRLGYPRWTRGQNREGEEFIRNVFHLVMPLFSGKEKSQLCFSWLQYEIAKVIWCLHTKNKKRLKSQGKNCKKLAKNLLKEPENCNNFCLWKQYAHLEWLLGNTEDARKVFDTALGMAGSRELKDSDLCELSLLYAELEVELSPEVRRAATARAVHILTKLTESSPYGPYTGQVLAVHILKARKAYEHALQDCLGDSCVSNPAPTDSCSRLISLAKCFMLFQYLTIGIDAAVQIYEQVFAKLNSSVFPEGSGEGDSASSQSWTSVLEAITLMHTSLLRFHMKVSVYPLAPLREALSQALKLYPGNQVLWRSYVQIQNKSHSASKTRRFFDTITRSAKPLEPWLFAIEAEKLRKRLVETVQRLDGREIHATIPETGLMHRIQALFENAMRSDSGSQCPLLWRMYLNFLVSLGNKERSKGVFYKALQNCPWAKVLYLDAVEYFPDEMQEILDLMTEKELRVRLPLEELELLLED [NRDE2],-0.031,48.5,49,-0.208
MNRLPDDYDPYAVEEPSDEEPALSSSEDEVDVLLHGTPDQKRKLIRECLTGESESSSEDEFEKEMEAELNSTMKTMEDKLSSLGTGSSSGNGKVATAPTRYYDDIYFDSDSEDEDRAVQVTKKKKKKQHKIPTNDELLYDPEKDNRDQAWVDAQRRGYHGLGPQRSRQQQPVPNSDAVLNCPACMTTLCLDCQRHESYKTQYRAMFVMNCSINKEEVLRYKASENRKKRRVHKKMRSNREDAAEKAETDVEEIYHPVMCTECSTEVAVYDKDEVFHFFNVLASHS [EAPP],0.14,50.3,,0.159
MPPERRRRMKLDRRTGAKPKRKPGMRPDWKAGAGPGGPPQKPAPSSQRKPPARPSAAAAAIAVAAAEEERRLRQRNRLRLEEDKPAVERCLEELVFGDVENDEDALLRRLRGPRVQEHEDSGDSEVENEAKGNFPPQKKPVWVDEEDEDEEMVDMMNNRFRKDMMKNASESKLSKDNLKKRLKEEFQHAMGGVPAWAETTKRKTSSDDESEEDEDDLLQRTGNFISTSTSLPRGILKMKNCQHANAERPTVARISSVQFHPGAQIVMVAGLDNAVSLFQVDGKTNPKIQSIYLERFPIFKACFSANGEEVLATSTHSKVLYVYDMLAGKLIPVHQVRGLKEKIVRSFEVSPDGSFLLINGIAGYLHLLAMKTKELIGSMKINGRVAASTFSSDSKKVYASSGDGEVYVWDVNSRKCLNRFVDEGSLYGLSIATSRNGQYVACGSNCGVVNIYNQDSCLQETNPKPIKAIMNLVTGVTSLTFNPTTEILAIASEKMKEAVRLVHLPSCTVFSNFPVIKNKNISHVHTMDFSPRSGYFALGNEKGKALMYRLHHYSDF [UTP18],0.81,,52.7,-2.03
MSRKQNQKDSSGFIFDLQSNTVLAQGGAFENMKEKINAVRAIVPNKSNNEIILVLQHFDNCVDKTVQAFMEGSASEVLKEWTVTGKKKNKKKKNKPKPAAEPSNGIPDSSKSVSIQEEQSAPSSEKGGMNGYHVNGAINDTESVDSLSEGLETLSIDARELEDPESAMLDTLDRTGSMLQNGVSDFETKSLTMHSIHNSQQPRNAAKSLSRPTTETQFSNMGMEDVPLATSKKLSSNIEKSVKDLQRCTVSLARYRVVVKEEMDASIKKMKQAFAELESCLMDREVALLAEMDKVKAEAMEILLSRQKKAELLKKMTHVAVQMSEQQLVELRADIKHFVSERKYDEDLGRVARFTCDVETLKKSIDSFGQVSHPKNSYSTRSRCSSVTSVSLSSPSDASAASSSTCASPPSLTSANKKNFAPGETPAAIANSSGQPYQPLREVLPGNRRGGQGYRPQGQKSNDPMNQGRHDSMGRYRNSSWYSSGSRYQSAPSQAPGNTIERGQTHSAGTNGTGVSMEPSPPTPSFKKGLPQRKPRTSQTEAVNS [SPATS2],0.928,52.2,51.5,-1.01
MRESALERGPVPEAPAGGPVHAVTVVTLLEKLASMLETLRERQGGLARRQGGLAGSVRRIQSGLGALSRSHDTTSNTLAQLLAKAERVSSHANAAQERAVRRAAQVQRLEANHGLLVARGKLHVLLFKEEGEVPASAFQKAPEPLGPADQSELGPEQLEAEVGESSDEEPVESRAQRLRRTGLQKVQSLRRALSGRKGPAAPPPTPVKPPRLGPGRSAEAQPEAQPALEPTLEPEPPQDTEEDPGRPGAAEEALLQMESVA [PRKCDBP],0.338,53.9,52.8,0.305
MVTEQEVDAIGQTLVDPKQPLQARFRALFTLRGLGGPGAIAWISQAFDDDSALLKHELAYCLGQMQDARAIPMLVDVLQDTRQEPMVRHEAGEALGAIGDPEVLEILKQYSSDPVIEVAETCQLAVRRLEWLQQHGGEPAAGPYLSVDPAPPAEERDVGRLREALLDESRPLFERYRAMFALRNAGGEEAALALAEGLHCGSALFRHEVGYVLGQLQHEAAVPQLAAALARCTENPMVRHECAEALGAIARPACLAALQAHADDPERVVRESCEVALDMYEHETGRAFQYADGLEQLRGAPS [DOHH],0.308,50.3,50.6,0.137
